Values quoted from earlier work as cited in PMC6769837.

Assays:
[1] = molecular target: integrin αvβ8 (Homo sapiens) (UniProt P06756)
[2] = molecular target: integrin αvβ6 (Homo sapiens) (UniProt P06756)
[3] = molecular target: integrin αvβ3 (Homo sapiens) (UniProt P06756)

LAP-TGFβ1 LAP (from UniProt P01137)
Kd [1]: 0.013 nM | Kd [2]: 10.3 nM | Kd [3]: 8500 nM
